According to PMC7961048 (2021):
Non-standard residues stand in square brackets, D forms with d. No end group written: not given here. *: point of attachment. FITC = O=C1OC2(c3ccc(O)cc3Oc3cc(O)ccc32)c2ccc(NC(=S)*)cc21; pS = N[C@@H](COP(=O)(O)O)C(=O)O

B1: full-length human 14-3-3ζ fused to the C terminus of MBP (natural protein)
chain: MDKNELVQKAKLAEQAERYDDMAACMKSVTEQGAELSNEERNLLSVAYKNVVGARRSSWRVVSSIEQKTEGAEKKQQMAREYREKIETELRDICNDVLSLLEKFLIPNASQAESKVFYLKMKGDYYRYLAEVAAGDDKKGIVDQSQQAYQEAFEISKKEMQPTHPIRLGLALNFSVFYYEILNSPEKACSLAKTAFDEAIAELDTLSEESYKDSTLIMQLLRDNLTLWTSDTQGDEAEAGEGGEN
B2: full-length human 14-3-3γ fused to the C terminus of MBP (natural protein)
chain: MVDREQLVQKARLAEQAERYDDMAAAMKNVTELNEPLSNEERNLLSVAYKNVVGARRSSWRVISSIEQKTSADGNEKKIEMVRAYREKIEKELEAVCQDVLSLLDNYLIKNCSETQYESKVFYLKMKGDYYRYLAEVATGEKRATVVESSEKAYSEAHEISKEHMQPTHPIRLGLALNYSVFYYEIQNAPEQACHLAKTAFDDAIAELDTLNEDSYKDSTLIMQLLRDNLTLWTSDQQDDDGGEGNN

How the values were obtained:
[1] = molecular target: T1, unfused 14-3-3ε devoid of the flexible C-terminal tail (human); assay: FP
T1 chain: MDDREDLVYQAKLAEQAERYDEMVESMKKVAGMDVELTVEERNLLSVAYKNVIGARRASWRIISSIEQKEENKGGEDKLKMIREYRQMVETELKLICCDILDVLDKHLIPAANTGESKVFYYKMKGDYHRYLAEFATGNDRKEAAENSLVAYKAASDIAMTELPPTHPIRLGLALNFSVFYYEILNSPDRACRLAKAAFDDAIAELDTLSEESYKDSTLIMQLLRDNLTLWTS

[2] = molecular target: T2, full-length human 14-3-3σ fused to the C terminus of MBP (human, UniProt P31947 1-248); assay: FP
T2 chain: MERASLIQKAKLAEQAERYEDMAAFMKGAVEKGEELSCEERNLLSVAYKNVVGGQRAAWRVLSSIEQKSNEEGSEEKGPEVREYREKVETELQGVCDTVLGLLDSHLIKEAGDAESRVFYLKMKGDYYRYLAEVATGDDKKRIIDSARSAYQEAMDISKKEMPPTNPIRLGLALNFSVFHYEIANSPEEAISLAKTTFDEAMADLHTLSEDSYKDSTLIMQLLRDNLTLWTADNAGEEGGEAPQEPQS

[3] = molecular target: T3, full-length human 14-3-3η fused to the C terminus of MBP (human, UniProt Q04917 1-246); assay: FP
T3 chain: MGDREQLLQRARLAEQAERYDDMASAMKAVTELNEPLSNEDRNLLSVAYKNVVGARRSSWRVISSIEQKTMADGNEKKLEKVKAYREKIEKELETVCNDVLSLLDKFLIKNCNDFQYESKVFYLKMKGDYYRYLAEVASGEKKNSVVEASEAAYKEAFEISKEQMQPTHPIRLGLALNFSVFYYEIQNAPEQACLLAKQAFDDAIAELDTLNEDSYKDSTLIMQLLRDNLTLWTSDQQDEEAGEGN

[4] = molecular target: B2; assay: FP
[5] = molecular target: T4, full-length human 14-3-3β fused to the C terminus of MBP (human, UniProt P31946 1-246); assay: FP
T4 chain: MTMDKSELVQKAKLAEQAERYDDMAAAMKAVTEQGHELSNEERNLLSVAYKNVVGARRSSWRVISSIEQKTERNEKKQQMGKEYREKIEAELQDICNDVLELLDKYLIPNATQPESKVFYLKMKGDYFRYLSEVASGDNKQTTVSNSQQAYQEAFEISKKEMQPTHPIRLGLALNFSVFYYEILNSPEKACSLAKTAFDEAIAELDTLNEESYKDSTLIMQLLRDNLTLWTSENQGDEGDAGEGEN

[6] = molecular target: T5, full-length human 14-3-3τ fused to the C terminus of MBP (human, UniProt P27348 1-245); assay: FP
T5 chain: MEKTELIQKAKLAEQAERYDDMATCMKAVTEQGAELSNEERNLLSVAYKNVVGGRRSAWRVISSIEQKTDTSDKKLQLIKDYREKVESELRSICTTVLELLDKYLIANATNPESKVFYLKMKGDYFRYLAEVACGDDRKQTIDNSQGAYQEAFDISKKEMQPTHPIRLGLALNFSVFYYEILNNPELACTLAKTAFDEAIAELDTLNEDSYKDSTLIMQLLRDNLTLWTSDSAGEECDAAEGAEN

[7] = molecular target: T6, full-length human 14-3-3ε fused to the C terminus of MBP (human, UniProt P62258 1-255); assay: FP
T6 chain: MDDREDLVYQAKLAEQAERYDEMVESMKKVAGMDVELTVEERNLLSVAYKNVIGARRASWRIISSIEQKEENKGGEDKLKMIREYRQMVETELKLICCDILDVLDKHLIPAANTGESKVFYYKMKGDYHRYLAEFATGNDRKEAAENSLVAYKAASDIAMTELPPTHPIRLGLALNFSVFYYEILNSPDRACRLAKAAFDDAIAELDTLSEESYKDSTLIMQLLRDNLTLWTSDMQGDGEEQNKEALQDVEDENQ

[8] = molecular target: T7, unfused 14-3-3τ devoid of the flexible C-terminal tail (human); assay: FP
T7 chain: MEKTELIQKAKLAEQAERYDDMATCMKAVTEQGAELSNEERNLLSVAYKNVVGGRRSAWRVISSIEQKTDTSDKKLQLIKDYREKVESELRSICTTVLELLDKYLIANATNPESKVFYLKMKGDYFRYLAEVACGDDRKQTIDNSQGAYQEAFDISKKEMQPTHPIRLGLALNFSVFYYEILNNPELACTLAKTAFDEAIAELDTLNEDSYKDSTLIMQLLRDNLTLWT

[9] = molecular target: B1; assay: FP
[10] = molecular target: T8, unfused 14-3-3β devoid of the flexible C-terminal tail (human); assay: FP
T8 chain: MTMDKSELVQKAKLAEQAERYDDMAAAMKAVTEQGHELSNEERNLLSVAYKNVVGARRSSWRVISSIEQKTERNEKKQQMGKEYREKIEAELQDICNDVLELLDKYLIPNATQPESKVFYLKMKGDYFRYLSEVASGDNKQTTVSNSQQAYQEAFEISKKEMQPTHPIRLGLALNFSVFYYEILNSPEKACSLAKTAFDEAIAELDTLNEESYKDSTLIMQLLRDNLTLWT

[11] = molecular target: B2; assay: FP; with FSC
[12] = molecular target: T9, HPV33 E6 phospho-PBM peptide p33E6 (human papillomavirus type 33); assay: FP
[13] = molecular target: T10, HPV35 E6 phospho-PBM peptide p35E6 (human papillomavirus type 35); assay: FP
[14] = molecular target: T9, HPV33 E6 phospho-PBM peptide p33E6; assay: FP; remark: listed apart in the source
[15] = molecular target: T10, HPV35 E6 phospho-PBM peptide p35E6; assay: FP; remark: listed apart in the source
[16] = molecular target: T9, HPV33 E6 phospho-PBM peptide p33E6; assay: FP; +FSC
[17] = molecular target: T10, HPV35 E6 phospho-PBM peptide p35E6; assay: FP; +FSC
[18] = molecular target: T9, HPV33 E6 phospho-PBM peptide p33E6; assay: FP; with FSC
[19] = molecular target: T10, HPV35 E6 phospho-PBM peptide p35E6; assay: FP; with FSC

Binder | Kd [1] | Kd [2] | Kd [3] | Kd [4] | Kd [5] | Kd [6] | Kd [7] | Kd [8] | Kd [9] | Kd [10] | Kd [11] | Kd [12] | Kd [13] | Kd [14] | Kd [15] | Kd [16] | Kd [17] | Kd [18] | Kd [19]
{FITC}-WLRRA[pS]APLPGLK [fluorescently labeled HSPB6 phosphopeptide (fpB6)] | 5.27 µM | 9.62 µM | 2.47 µM | 1.95 µM | 5.22 µM | 9 µM | 7.17 µM | 6.53 µM | 4.76 µM | 3.75 µM | 4.4 µM |  |  |  |  |  |  |  | 
B1 |  |  |  |  |  |  |  |  |  |  |  | 2.7 µM | 191 µM | 2.72 µM | 191 µM | 3.9 µM | 294 µM | 3.94 µM | 294 µM
B2 |  |  |  |  |  |  |  |  |  |  |  | 0.9 µM | 125 µM |  | 125 µM | 2.2 µM | 228 µM | 2.15 µM | 
